Measured values reported in patent publication US20220332824A1 (NANJING GENSCRIPT BIOTECH, published 2022).
Residue numbers refer to the chain shown, from its start.

B1: bispecific antibody PD1a-E-LC (bispecific antibody, human IgG4 S228P, kappa)
heavy: not shown
light: EIVLTQSPATLSLSPGERATLSCRASENVGTYISWYQQKPGQAPRLLIYGASNRYTGIPARFSGSGSGTDFTLTISSLEPEDFAVYYCGESYGHLYTFGGGTKVEIKRTVAAPSVFIFPPSDEQLKSGTASVVCLLNNFYPREAKVQWKVDNALQSGNSQESVTEQDSKDSTYSLSSTLTLSKADYEKHKVYACEVTHQGLSSPVTKSFNRGECEPKSSDKTHTSPPSPEVQLVESGGGLVQPGGSLRLSCAVSGNIYNRNFMGWFRQAPGKGREGVSAIYTGTSRTYYADSVKGRFTISRDNAKNTVYLQMNSLRPEDTAVYYCAADLRDGFWDTGVWNTWGQGTLVTVSS
notes: PD1a sdAb fused by the E-linker to the C-terminus of light chain L0; also called L1 + H0
B2: bispecific antibody PD1b-E-LC (bispecific antibody, human IgG4 S228P, kappa)
heavy: not shown
light: B1 light with R274L, A304S, P317A, D331E
notes: PD1b sdAb fused by the E-linker to the C-terminus of light chain L0; also called L2 + H0
B3: bispecific antibody PD1a-E-HN (bispecific antibody, human IgG4 S228P, kappa)
heavy: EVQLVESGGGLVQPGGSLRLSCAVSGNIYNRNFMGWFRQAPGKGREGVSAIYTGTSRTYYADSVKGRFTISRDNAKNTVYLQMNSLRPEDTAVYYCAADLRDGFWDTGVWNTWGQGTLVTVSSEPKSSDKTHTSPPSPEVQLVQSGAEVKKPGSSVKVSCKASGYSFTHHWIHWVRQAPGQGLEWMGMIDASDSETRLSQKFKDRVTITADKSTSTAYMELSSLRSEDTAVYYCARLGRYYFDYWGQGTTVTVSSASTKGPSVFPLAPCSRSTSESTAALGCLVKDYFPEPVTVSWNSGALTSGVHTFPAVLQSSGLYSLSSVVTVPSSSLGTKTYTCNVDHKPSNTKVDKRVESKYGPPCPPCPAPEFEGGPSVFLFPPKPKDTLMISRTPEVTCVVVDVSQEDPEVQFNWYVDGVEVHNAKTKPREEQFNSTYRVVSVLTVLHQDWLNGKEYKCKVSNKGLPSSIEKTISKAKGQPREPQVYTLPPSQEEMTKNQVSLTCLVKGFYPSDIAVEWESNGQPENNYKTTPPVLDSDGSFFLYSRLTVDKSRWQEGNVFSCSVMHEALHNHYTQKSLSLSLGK
light: EIVLTQSPATLSLSPGERATLSCRASENVGTYISWYQQKPGQAPRLLIYGASNRYTGIPARFSGSGSGTDFTLTISSLEPEDFAVYYCGESYGHLYTFGGGTKVEIKRTVAAPSVFIFPPSDEQLKSGTASVVCLLNNFYPREAKVQWKVDNALQSGNSQESVTEQDSKDSTYSLSSTLTLSKADYEKHKVYACEVTHQGLSSPVTKSFNRGEC
notes: PD1a sdAb fused by the E-linker to the N-terminus of heavy chain H0; also called H3 + L0
B4: bispecific antibody PD1a-E-HC (bispecific antibody, human IgG4 S228P, kappa)
heavy: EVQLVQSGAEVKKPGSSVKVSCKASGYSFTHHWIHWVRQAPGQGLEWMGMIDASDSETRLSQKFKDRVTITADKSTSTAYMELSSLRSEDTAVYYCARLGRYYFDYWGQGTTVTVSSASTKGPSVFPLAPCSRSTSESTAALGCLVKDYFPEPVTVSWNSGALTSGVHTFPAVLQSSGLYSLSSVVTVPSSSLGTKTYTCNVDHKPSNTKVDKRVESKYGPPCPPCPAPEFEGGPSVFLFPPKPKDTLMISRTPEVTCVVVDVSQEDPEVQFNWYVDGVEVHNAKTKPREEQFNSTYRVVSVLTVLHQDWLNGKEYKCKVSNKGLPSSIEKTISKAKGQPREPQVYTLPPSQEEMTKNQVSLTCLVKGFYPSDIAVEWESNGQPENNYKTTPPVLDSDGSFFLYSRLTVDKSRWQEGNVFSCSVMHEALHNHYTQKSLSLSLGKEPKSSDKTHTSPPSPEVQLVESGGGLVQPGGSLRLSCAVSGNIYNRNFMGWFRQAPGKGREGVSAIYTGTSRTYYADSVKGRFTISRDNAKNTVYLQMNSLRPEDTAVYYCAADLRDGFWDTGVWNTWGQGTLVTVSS
light: B3 light
notes: PD1a sdAb fused by the E-linker to the C-terminus of heavy chain H0; also called H1 + L0
B5: bispecific antibody PD1a-G15-HC (bispecific antibody, human IgG4 S228P, kappa)
heavy: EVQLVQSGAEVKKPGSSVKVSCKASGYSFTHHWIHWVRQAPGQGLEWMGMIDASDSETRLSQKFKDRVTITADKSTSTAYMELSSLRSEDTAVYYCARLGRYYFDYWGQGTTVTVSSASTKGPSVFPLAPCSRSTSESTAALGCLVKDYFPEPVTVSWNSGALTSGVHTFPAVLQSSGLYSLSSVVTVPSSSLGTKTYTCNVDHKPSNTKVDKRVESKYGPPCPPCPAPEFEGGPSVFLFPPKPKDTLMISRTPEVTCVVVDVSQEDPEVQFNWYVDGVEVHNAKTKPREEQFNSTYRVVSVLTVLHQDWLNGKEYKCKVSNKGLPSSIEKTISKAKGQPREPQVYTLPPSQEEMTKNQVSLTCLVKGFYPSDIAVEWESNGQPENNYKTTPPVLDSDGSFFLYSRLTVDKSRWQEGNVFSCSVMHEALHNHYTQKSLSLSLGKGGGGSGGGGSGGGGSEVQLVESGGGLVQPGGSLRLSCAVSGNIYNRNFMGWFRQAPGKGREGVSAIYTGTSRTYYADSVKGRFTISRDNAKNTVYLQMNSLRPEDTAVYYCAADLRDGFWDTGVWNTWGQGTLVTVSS
light: B3 light
notes: PD1a sdAb fused by the G15-linker to the C-terminus of heavy chain H0; also called H5 + L0
B6: bispecific antibody PD1b-E-HN (bispecific antibody, human IgG4 S228P, kappa)
heavy: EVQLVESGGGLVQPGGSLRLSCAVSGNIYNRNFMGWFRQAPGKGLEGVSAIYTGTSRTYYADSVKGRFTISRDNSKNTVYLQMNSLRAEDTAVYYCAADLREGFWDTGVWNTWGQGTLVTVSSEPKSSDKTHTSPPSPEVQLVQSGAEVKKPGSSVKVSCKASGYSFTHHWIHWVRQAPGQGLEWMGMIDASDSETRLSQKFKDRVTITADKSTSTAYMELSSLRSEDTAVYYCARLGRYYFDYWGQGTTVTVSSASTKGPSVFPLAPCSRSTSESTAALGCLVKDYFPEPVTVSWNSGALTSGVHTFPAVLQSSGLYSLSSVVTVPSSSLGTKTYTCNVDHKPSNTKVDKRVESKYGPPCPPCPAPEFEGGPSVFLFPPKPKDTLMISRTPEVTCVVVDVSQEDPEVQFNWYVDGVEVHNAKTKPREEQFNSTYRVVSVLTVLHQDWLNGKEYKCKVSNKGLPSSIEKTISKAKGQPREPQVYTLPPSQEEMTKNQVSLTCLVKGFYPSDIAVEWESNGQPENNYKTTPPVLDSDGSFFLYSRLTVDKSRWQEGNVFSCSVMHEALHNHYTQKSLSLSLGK
light: B3 light
notes: PD1b sdAb fused by the E-linker to the N-terminus of heavy chain H0; also called H4 + L0
B7: bispecific antibody PD1b-E-HC (bispecific antibody, human IgG4 S228P, kappa)
heavy: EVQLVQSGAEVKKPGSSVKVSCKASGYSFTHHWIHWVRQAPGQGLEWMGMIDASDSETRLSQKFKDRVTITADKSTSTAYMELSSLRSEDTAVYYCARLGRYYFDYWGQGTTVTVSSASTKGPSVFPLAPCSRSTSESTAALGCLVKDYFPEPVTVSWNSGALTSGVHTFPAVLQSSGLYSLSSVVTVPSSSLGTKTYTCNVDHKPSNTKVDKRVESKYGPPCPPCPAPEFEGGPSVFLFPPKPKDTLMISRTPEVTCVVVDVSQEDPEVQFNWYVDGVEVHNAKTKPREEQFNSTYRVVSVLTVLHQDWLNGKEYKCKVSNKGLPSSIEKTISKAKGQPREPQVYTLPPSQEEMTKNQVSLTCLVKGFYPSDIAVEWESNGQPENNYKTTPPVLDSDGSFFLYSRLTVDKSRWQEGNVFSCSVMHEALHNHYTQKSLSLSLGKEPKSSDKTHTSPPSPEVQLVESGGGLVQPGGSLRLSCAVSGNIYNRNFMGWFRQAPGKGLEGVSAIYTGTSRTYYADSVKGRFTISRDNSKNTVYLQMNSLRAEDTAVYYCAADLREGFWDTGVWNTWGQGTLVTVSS
light: B3 light
notes: PD1b sdAb fused by the E-linker to the C-terminus of heavy chain H0; also called H2 + L0
B8: bispecific antibody PD1a-E-LN (bispecific antibody, human IgG4 S228P, kappa)
heavy: not shown
light: EVQLVESGGGLVQPGGSLRLSCAVSGNIYNRNFMGWFRQAPGKGREGVSAIYTGTSRTYYADSVKGRFTISRDNAKNTVYLQMNSLRPEDTAVYYCAADLRDGFWDTGVWNTWGQGTLVTVSSEPKSSDKTHTSPPSPEIVLTQSPATLSLSPGERATLSCRASENVGTYISWYQQKPGQAPRLLIYGASNRYTGIPARFSGSGSGTDFTLTISSLEPEDFAVYYCGESYGHLYTFGGGTKVEIKRTVAAPSVFIFPPSDEQLKSGTASVVCLLNNFYPREAKVQWKVDNALQSGNSQESVTEQDSKDSTYSLSSTLTLSKADYEKHKVYACEVTHQGLSSPVTKSFNRGEC
notes: PD1a sdAb fused by the E-linker to the N-terminus of light chain L0; also called L3 + H0
B9: bispecific antibody PD1b-E-LN (bispecific antibody, human IgG4 S228P, kappa)
heavy: not shown
light: B8 light with R45L, A75S, P88A, D102E
notes: PD1b sdAb fused by the E-linker to the N-terminus of light chain L0; also called L4 + H0

Target: T1, human PD-1 (human, UniProt Q15116 25-288)
T1 construct: whole, on cells; also called PD-1 antigen
Experiment: flow cytometry on CHO-K1 cells expressing PD-1
Method: For the constructed series of bispecific antibodies, the affinity of these samples with antigens was measured by using a flow cytometer. […] Then, an antibody-antigen binding curve was generated based on the geometric mean, raw data of four parameters was plotted by using the […] Prism V6.02 software, and a best fitted value program was compiled to analyze EC₅₀.

T1 sequence (Q15116 25-288): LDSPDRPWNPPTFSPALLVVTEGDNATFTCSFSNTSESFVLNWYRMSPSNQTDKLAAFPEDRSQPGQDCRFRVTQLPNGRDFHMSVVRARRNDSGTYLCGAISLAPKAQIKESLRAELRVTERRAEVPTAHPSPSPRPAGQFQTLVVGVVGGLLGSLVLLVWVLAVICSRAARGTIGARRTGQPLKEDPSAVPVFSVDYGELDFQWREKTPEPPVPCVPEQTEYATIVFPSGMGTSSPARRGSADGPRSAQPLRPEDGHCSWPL

Binding result, binds:
B1, B2, B3, B4, B5, B6, B7, B8, B9
